First the molecules themselves.
B1: Gtr1-myc (natural protein, S. cerevisiae, UniProt Q00582 1-310, looked up)
chain: MSSNNRKKLLLMGRSGSGKSSMRSIIFSNYSAFDTRRLGATIDVEHSHLRFLGNMTLNLWDCGGQDVFMENYFTKQKDHIFQMVQVLIHVFDVESTEVLKDIEIFAKALKQLRKYSPDAKIFVLLHKMDLVQLDKREELFQIMMKNLSETSSEFGFPNLIGFPTSIWDESLYKAWSQIVCSLIPNMSNHQSNLKKFKEIMNALEIILFERTTFLVICSSNGENSNENHDSSDNNNVLLDPKRFEKISNIMKNFKQSCTKLKSGFKTLILNNNIYVSELSSNMVCFIVLKDMNIPQELVLENIKKAKEFFQ
notes: Gtr1, small GTPase (homolog of RagA/B), S. cerevisiae; also called Gtr1/2; source: S. cerevisiae (W303) strain carrying Gtr1-myc, in lysate
B2: GFP-Ait1 (natural protein, S. cerevisiae, UniProt Q12301 1-547, looked up)
chain: MVRLNHAASYFMPIFCSTRPHIVILSALFSISLFSLFYASSELLLHQYDDPLMFKPNSQDYFRTFLLGLFSPFLYYFLKTFLFNINQRFLILNLIVDFPINDVFMLLILIGLAYPQVQDHEGGTIKHKECSWHIIPRQAYIFGISWALGEFTICIIGNLFNYQEIADPNINSGFTHQESANTYCNNNDMSHNDDCGCSTEYRPNVVDRSDITLSKCIEVRNDSSSISNNVYSSEYHPIKPLRSSSSTYGSIRQQPHENKKQLHVPDNSQDDTIIMMNPIDNSLKLTTLDTGDLSFPIDEEQPILKKSFGYTWAVPNENTQNTTKSFTPIKRFIAFSTAYQLVTGLLLMILVVGSNIMLTIGESLILSMYFVYVRGHEGLFTPVVNYFGSRTISNFILCVIIPFISLNFLINTSIYLRRELDDWFNNSQGEFEDDDENTISKRVATNQEYQHPLSANYISMDSPDVINSSPGHFGMNSGQLLGNTTLYYGSLNGDDDDMTNDSALLRFCKKLVKNWRALARNDSFVLGVMVSWSLLVFVTGILSTVYI
notes: Ait1 (Ydl180w), GPCR-like protein of the vacuolar membrane, S. cerevisiae; The strain list is in Supplementary file 3; source: S. cerevisiae (W303) strain carrying GFP-Ait1, in lysate; not shown: GFP, N-terminal, kept

Test [1] deals with B2. As to the kind of experiment: co-IP; GFP-Ait1 or GFP-Ait1C3v2 immunopurified on anti-GFP beads in nonionic detergent (digitonin) without a crosslinker; blot with anti-Myc and anti-GFP; log phase, 30 min amino acid starvation, long-term amino acid and glucose starvation. As to conditions: partners not purified.
Test [2] has as its target T1, Kog1-FLAG (S. cerevisiae, UniProt P38873 1-1557).
T1 construct: Kog1 (Raptor homolog), subunit of TORC1, S. cerevisiae; Bait on anti-FLAG beads; The strain list is in Supplementary file 3; also called Kog1/Raptor; TORC1 subunit Kog1; source: S. cerevisiae (W303) strain carrying Kog1-FLAG, in lysate
Put plainly: co-IP; Kog1-FLAG immunopurified on anti-FLAG beads after DSP crosslinking; blot with anti-GFP and anti-FLAG; with and without amino acids, long-term amino acid and glucose starvation, also with 4x protease inhibitors. As to conditions: partners not purified.

T1 sequence (P38873 whole entry): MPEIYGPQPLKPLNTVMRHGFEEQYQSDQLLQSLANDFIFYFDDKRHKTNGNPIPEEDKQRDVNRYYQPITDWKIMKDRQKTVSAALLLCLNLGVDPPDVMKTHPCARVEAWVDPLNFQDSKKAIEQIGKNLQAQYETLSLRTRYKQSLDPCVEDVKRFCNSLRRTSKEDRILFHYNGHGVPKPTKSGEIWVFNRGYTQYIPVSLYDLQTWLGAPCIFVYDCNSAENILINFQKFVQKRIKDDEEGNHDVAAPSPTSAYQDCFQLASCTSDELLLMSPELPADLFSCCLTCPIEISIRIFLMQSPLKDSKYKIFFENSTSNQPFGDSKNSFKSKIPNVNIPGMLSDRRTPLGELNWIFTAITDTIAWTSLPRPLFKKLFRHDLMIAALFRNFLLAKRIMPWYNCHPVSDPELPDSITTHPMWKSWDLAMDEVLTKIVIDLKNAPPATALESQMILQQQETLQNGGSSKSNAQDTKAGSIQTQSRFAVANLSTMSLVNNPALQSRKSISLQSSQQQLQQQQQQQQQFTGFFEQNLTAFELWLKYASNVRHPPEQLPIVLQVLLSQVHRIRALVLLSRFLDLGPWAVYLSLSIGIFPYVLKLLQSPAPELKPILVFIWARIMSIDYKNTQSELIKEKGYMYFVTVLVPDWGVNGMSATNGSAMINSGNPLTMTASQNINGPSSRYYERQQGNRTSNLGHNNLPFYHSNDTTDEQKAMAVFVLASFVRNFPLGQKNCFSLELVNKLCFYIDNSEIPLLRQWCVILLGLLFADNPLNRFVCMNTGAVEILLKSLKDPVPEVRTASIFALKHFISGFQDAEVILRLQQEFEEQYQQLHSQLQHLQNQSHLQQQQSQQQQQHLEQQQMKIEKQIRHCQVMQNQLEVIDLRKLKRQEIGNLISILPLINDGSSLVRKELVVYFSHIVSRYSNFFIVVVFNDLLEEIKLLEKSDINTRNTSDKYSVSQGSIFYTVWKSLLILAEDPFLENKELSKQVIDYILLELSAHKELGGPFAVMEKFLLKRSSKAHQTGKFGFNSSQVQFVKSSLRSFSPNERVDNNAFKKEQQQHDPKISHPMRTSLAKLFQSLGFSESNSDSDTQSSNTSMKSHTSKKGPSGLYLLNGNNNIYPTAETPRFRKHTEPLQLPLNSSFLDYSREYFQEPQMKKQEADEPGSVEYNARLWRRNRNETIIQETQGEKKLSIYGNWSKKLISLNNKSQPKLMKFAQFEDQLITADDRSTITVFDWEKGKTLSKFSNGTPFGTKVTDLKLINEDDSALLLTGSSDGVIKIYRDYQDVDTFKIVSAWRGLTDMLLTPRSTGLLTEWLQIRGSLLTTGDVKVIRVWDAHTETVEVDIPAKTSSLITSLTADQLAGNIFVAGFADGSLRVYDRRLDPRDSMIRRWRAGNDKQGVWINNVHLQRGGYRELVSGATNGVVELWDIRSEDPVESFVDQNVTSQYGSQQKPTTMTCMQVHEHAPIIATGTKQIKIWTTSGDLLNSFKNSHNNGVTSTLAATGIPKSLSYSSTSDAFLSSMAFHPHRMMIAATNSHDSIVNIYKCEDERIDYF

For B1, the “amount copurified after long-term amino acid and glucose starvation, relative to log-phase growth” value in test [1] was 60 % of the level found in log-phase growth.
For the molecule B2, the “amount copurified after long-term amino acid and glucose starvation, relative to log-phase growth” value in test [2] was 50 % of the level found in log-phase growth.

For the origin of these results see publication PMC9499541, “Ait1 regulates TORC1 signaling and localization in budding yeast” (eLife, 2022).
